Patent publication US20030049649, “Targeted modification of chromatin structure” (published 2003)

Biological target: T1, Veg1 (unfused three-finger ZFP) (Artificial (human SP1 backbone), UniProt P08047 SEQ:1-99)
T1 chain: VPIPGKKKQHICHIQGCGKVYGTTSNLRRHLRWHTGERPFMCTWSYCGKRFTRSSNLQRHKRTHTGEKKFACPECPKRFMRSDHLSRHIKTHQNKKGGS
Test: EMSA; apparent Kd (half-maximal binding), 100 mM KCl, 1 mM MgCl2, 100 uM ZnCl2, room temperature; not corrected for purity
Conditions: tags: none, expressed in E. coli BL21/DE3 from pET15b, >50% pure; label: 5' 32P top strand
Description: Assays for binding of Veg1 to the target oligonucleotide (above) were performed by titrating protein against a fixed amount of duplex target. Binding reactions contained 50 pM 5′ ³²P labeled double stranded target DNA, 10 mM Tris-HCl (pH 7.5), 100 mM KCl, 1 mM MgCl₂, 1 mM dithiothreitol, 10% glycerol, 200 μg/ml bovine serum albumin, 0.02% NP-40, 20 μg/ml poly dI-dC (optionally), and 100 μM ZnCl₂, in a final volume of 20 μl. Protein was added to the binding reaction as one-fifth volume from a dilution series made in 200 mM NaCl, 20 mM Tris (pH 7.5), 1 mM DTT. Binding was allowed to proceed for 45 min at room temperature. Polyacrylamide gel electrophoresis was carried out at room temperature using precast 10% or 10-20% Tris-HCl gels (BioRad, Hercules, Calif.) and Tris-Glycine running buffer (25 mM Tris-HCl, 192 mM glycine, pH 8.3) containing 0.1 mM ZnCl₂. Radioactive signals were quantitated with a Phosphorimager.
Shifted product, indicative of labeled target with bound protein, is indicated by an arrow in FIG. 2A. The amount of shifted product was determined at each protein concentration and quantitated on a Phosphorimager (Molecular Dynamics). The relative signal (percent of maximal amount of shifted product) was plotted as a function of log₁₀ protein concentration. […]

B1: Veg1 29-mer target duplex (dsDNA)
DNA 1: CATGCATAGCGGGGAGGATCGCCATCGAT
DNA 2: ATCGATGGCGATCCTCCCCGCTATGCATG
B1 was tested. Which Kd did it give?
The Kd was ~50 nM.
